Laboratory results taken from patent US20060115475A1 (published 2006).

B1: murine anti-hTLR3 antagonist mAb 1068 (antibody, mouse IgG1, V domains shown)
VH: QVQLQQPGAELVQPGTSVRLSCKASGYIFTTYWIHWVKQRPGQGLEWIGEINPNNGRINYNEKFKTKATLTVDKSSSTAYMQLSSLTSEDSAVYYCTRVGVMITTFPYWGQGTLVTVSA
VL: DIQMTQSPASLSASVGETVTITCRASGNIHNYLAWYQQKQGKSPQLLVYNAKTLADGVPSRFSGSESGTQYSLKINSLQPEDFGSYYCQHFWSTPFTFGSGTKLELK
notes: also called C1068; mAb C1068
B2: human-adapted C1068 variant mAb HBV6 (Vκ CDR1 H30S in the HV1/LV1 background) (antibody, V domains shown)
VH: QVQLVQSGAEVKKPGASVKVSCKASGYTFTTYWIHWVRQAPGQRLEWMGEINPNNGRINYNEKFKTRVTITRDTSASTAYMELSSLRSEDTAVYYCARVGVMITTFPYWGQGTLVTVSS
VL: DIQMTQSPSSLSASVGDRVTITCRASGNISNYLAWYQQKPGKAPKLLIYNAKTLADGVPSRFSGSGSGTDFTLTISSLQPEDFATYYCQHFWSTPFTFGQGTKLEIK
notes: Made in the HV1/LV1 background; not shown: human kappa light chain constant region

Assays:
[1] = biological target: T1, Human hexa-histidine-TLR3 (human, UniProt O15455 24-703, limits assumed); test: Biacore 3000, hexa-histidine-TLR3 captured on anti-His antibody, mAb in solution, 25 C, 1:1 model
T1 construct: Captured by anti-His antibody on a CM5 chip; also called TLR3 (captured on the chip surface); not shown: hexa-histidine tag

[2] = biological target: T2, soluble human TLR3 extracellular domain (human, UniProt O15455 24-703); test: Biacore 2000, mAb captured on protein A, TLR3 in solution, 25 C, 1:1 model; mAb capture (mAb on protein A chip, TLR3 in solution)
T2 construct: also called hTLR3 extracellular domain; extracellular domain of human TLR3
Method: Measurement of binding affinity by Biacore was performed by mAb capture and TLR3 capture techniques. MAb capture analysis was performed at 25° C. using a Biacore 2000 biosensor equipped with a CM5 chip with surfaces modified with protein A (6,000 RU) at 25° C. by standard amine coupling. Antibody was diluted to 30 nM and captured for one minute on different protein A surfaces. TLR3 was injected at 0, 0.1, 0.3, 1.0, 3.0, and 9.0 nM and associations and dissociations were monitored for 5 minutes. The protein A modified surfaces were regenerated using two 6-second pulses 100 mM phosphoric acid. Available binding data sets were fit to a 1:1 interaction model (CLAMP™). The rate constants and their ratio (KD=kd/kₐ) and the error of fit carried over the estimate of the apparent equilibrium constants were calculated.

[3] = biological target: T2, soluble human TLR3 extracellular domain; test: ELISA, coated soluble hTLR3 extracellular domain, anti-mouse IgG-HRP
[4] = biological target: T2, soluble human TLR3 extracellular domain; test: ELISA, TLR3 binding assay as in Example 20
[5] = biological target: T2, soluble human TLR3 extracellular domain; test: ELISA, TLR3 binding assay

Binder | Kd [1] | Kd [2] | EC50 [3] | EC50 [4] | EC50 [5]
B1 | 0.316 nM | 1.2 nM | 0.008 µg/mL |  | 
B2 |  |  |  | 1.22 µg/mL | > 1 µg/mL
